# Source: paper PMC9871958
# Molecular target: SARS-CoV-2 spike ectodomain (S-trimer) (SARS-CoV-2) (UniProt P0DTC2)
# Assay: cryo-EM structure
substance,measurement,value
SARS-CoV-2 spike ectodomain (S-trimer) (from UniProt P0DTC2 14-1213) (complex),stoichiometry N,3
